Laboratory results as given in the supplement of paper PMC10065799, “High-throughput profiling of sequence recognition by tyrosine kinases and SH2 domains using bacterial peptide display” (eLife, 2023).

Target: FGFR1 (UniProt P11362)
Assay: phosphorylation enrichment, bacterial display (enrichment ratio); higher = better substrate or ligand; peptides without Tyr show the background
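Further: 11-residue human phosphosite peptides and single-mutation variants displayed on the E. coli surface, counted by deep sequencing, each peptide's frequency after selection divided by its frequency in the unselected input library; frequency after pTyr selection over input frequency; kinase dosed for 20-30% of maximal phosphorylation in three min.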

FGFR1, sequence (P11362 whole entry, looked up): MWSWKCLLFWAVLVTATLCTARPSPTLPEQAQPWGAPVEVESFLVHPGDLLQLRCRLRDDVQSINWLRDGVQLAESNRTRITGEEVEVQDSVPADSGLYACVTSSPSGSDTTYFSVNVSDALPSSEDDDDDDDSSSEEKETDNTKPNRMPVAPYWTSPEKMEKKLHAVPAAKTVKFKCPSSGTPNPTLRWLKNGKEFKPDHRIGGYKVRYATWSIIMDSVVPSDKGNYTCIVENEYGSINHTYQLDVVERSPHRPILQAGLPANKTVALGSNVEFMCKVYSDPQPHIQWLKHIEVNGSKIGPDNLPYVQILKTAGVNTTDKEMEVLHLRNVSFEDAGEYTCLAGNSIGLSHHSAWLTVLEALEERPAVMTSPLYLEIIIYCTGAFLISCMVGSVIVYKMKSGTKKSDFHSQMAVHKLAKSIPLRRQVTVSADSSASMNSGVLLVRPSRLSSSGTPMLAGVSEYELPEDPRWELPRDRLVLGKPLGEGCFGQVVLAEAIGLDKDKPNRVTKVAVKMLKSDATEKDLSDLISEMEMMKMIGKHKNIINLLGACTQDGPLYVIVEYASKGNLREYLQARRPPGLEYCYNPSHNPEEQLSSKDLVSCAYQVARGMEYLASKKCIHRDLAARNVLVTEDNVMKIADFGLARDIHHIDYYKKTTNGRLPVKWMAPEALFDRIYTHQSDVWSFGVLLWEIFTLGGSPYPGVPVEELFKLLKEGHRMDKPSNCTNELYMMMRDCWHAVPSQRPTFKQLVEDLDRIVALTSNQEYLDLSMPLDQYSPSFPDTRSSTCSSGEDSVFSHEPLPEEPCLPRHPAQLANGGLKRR

First: VEDHYYEGGIG [TKT_Y564]
Second: SNNYIYKTLGV [FAM83B_Y639]
The phosphorylation enrichment of the first is higher: 1.59 for the first, 0.484 for the second.

First: KGPNVYKKTVN [REV3L_Y1156]
Second: AQMAMYFWEMG [TRPM4_Y577]
The phosphorylation enrichment of the first is lower: 0.448 for the first, 3.25 for the second.

Going from MPAVTYTPAMR [MEGF10_Y895] to FRPPFYHRDCM [HGD_Y334_N337D_YF], the phosphorylation enrichment rises from 0.28 to 0.558.

First: MANFMYKAGPS [MAML2_Y515_YF]
Second: EKKKFYDTKIE [CASP5_Y104_YF]
The phosphorylation enrichment of the first is higher: 0.378 for the first, 0.342 for the second.

First: VKMLEYLGKDV [CASP5_Y74]
Second: VDEVLYEDSSA [MTHFS_Y197_T202A]
The phosphorylation enrichment of the first is lower: 0.375 for the first, 0.679 for the second.

Compared with TVLEPYTDPFF [ZC3H18_Y367_A368T_YF], RSAGKDDVFLI [MECP2_Y120_Y120D_YF] is lower in phosphorylation enrichment: 1.29 for the first, 0.629 for the second.

First: KRLDGYVLEGR [IGSF9_Y656]
Second: AKGMKYLASKK [MET_Y1194]
The phosphorylation enrichment of the first is higher: 0.43 for the first, 0.341 for the second.

Compared with TEALYYTDDPA [ADPRS_Y75_T79P], SHSMRYFSTAV [HLA-C_Y31_D33S] is lower in phosphorylation enrichment: 5.2 for the first, 0.657 for the second.

Compared with ASTDYNKRGDF [PDHA1_Y243_Y243N], TLQSMYGCDVG [HLA-B_Y123] is higher in phosphorylation enrichment: 0.421 for the first, 0.497 for the second.

Going from SRLSAYPALEG [CD5_Y465_H461R] to FQRLRYIKQLG [SAMHD1_Y146], the phosphorylation enrichment falls from 0.486 to 0.42.

Compared with GKGGSYSKAES [HLA-E_Y341_W346S], PRDSGYSYETI [MAP1B_Y1921_S1917R] is higher in phosphorylation enrichment: 0.391 for the first, 0.679 for the second.

Going from VLDCHYPEDEV [C1QBP_Y188] to YQCKHYACIRQ [TIMP3_Y182_S179C], the phosphorylation enrichment falls from 0.596 to 0.336.

Going from PSELYYSKIGP [SMG1_Y2254] to VEKGSYSALRA [ABCC2_Y845_L849R], the phosphorylation enrichment falls from 12.9 to 0.356.

Compared with VQEDIYDEFVE [ALDH2_Y332], FDDDDYDTDFV [BLM_Y296] is higher in phosphorylation enrichment: 0.459 for the first, 0.586 for the second.

Going from KQVEQYMSFHK [HCN1_Y417] to FDDIAYIRKNL [PIK3CA_Y1021_T1025N], the phosphorylation enrichment falls from 0.49 to 0.432.

Going from HGEAVYSRDCV [XPC_Y676_R671H] to GREYIYVDPMQ [PDGFRA_Y574_H570R], the phosphorylation enrichment rises from 0.621 to 12.7.

Sequence SNMPTYSGHFT [GRIN2A_Y1224] has a phosphorylation enrichment of 0.354.

Target: Fyn (UniProt P06241)
Sequence (P06241 whole entry, looked up): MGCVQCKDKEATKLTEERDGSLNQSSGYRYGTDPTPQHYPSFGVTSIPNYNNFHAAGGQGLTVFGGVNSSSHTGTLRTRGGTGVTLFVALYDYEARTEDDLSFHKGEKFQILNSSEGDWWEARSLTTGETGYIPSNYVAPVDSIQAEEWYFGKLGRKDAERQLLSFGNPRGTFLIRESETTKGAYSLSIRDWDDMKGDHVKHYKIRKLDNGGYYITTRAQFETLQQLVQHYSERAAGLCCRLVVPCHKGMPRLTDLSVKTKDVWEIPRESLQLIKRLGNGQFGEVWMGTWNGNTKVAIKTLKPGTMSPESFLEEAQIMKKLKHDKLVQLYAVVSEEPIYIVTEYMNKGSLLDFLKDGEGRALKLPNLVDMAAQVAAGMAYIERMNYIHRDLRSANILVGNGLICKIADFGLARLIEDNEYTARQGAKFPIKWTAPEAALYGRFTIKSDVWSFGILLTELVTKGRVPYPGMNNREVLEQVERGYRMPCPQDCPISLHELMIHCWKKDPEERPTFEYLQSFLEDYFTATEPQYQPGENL
Assay: as above

Going from VEDHYYEGGIG [TKT_Y564] to SNNYIYKTLGV [FAM83B_Y639], the phosphorylation enrichment falls from 0.559 to 0.467.

Going from KGPNVYKKTVN [REV3L_Y1156] to AQMAMYFWEMG [TRPM4_Y577], the phosphorylation enrichment rises from 0.313 to 1.1.

First: MPAVTYTPAMR [MEGF10_Y895]
Second: FRPPFYHRDCM [HGD_Y334_N337D_YF]
The phosphorylation enrichment of the first is lower: 0.313 for the first, 0.459 for the second.

Compared with MANFMYKAGPS [MAML2_Y515_YF], EKKKFYDTKIE [CASP5_Y104_YF] is lower in phosphorylation enrichment: 0.383 for the first, 0.353 for the second.

Compared with VKMLEYLGKDV [CASP5_Y74], VDEVLYEDSSA [MTHFS_Y197_T202A] is higher in phosphorylation enrichment: 0.454 for the first, 0.502 for the second.

Going from TVLEPYTDPFF [ZC3H18_Y367_A368T_YF] to RSAGKDDVFLI [MECP2_Y120_Y120D_YF], the phosphorylation enrichment rises from 0.535 to 0.557.

Going from KRLDGYVLEGR [IGSF9_Y656] to AKGMKYLASKK [MET_Y1194], the phosphorylation enrichment falls from 0.441 to 0.354.

First: TEALYYTDDPA [ADPRS_Y75_T79P]
Second: SHSMRYFSTAV [HLA-C_Y31_D33S]
The phosphorylation enrichment of the first is higher: 1.91 for the first, 0.459 for the second.

Going from ASTDYNKRGDF [PDHA1_Y243_Y243N] to TLQSMYGCDVG [HLA-B_Y123], the phosphorylation enrichment rises from 0.456 to 0.552.

Compared with SRLSAYPALEG [CD5_Y465_H461R], FQRLRYIKQLG [SAMHD1_Y146] is lower in phosphorylation enrichment: 0.425 for the first, 0.399 for the second.

Going from GKGGSYSKAES [HLA-E_Y341_W346S] to PRDSGYSYETI [MAP1B_Y1921_S1917R], the phosphorylation enrichment falls from 0.375 to 0.354.

Going from VLDCHYPEDEV [C1QBP_Y188] to YQCKHYACIRQ [TIMP3_Y182_S179C], the phosphorylation enrichment falls from 0.464 to 0.347.

Going from PSELYYSKIGP [SMG1_Y2254] to VEKGSYSALRA [ABCC2_Y845_L849R], the phosphorylation enrichment falls from 8.78 to 0.34.

First: VQEDIYDEFVE [ALDH2_Y332]
Second: FDDDDYDTDFV [BLM_Y296]
The phosphorylation enrichment of the first is higher: 1.89 for the first, 0.563 for the second.

First: KQVEQYMSFHK [HCN1_Y417]
Second: FDDIAYIRKNL [PIK3CA_Y1021_T1025N]
The phosphorylation enrichment of the first is higher: 1.49 for the first, 0.403 for the second.

Going from HGEAVYSRDCV [XPC_Y676_R671H] to GREYIYVDPMQ [PDGFRA_Y574_H570R], the phosphorylation enrichment falls from 3.49 to 1.73.

SNMPTYSGHFT [GRIN2A_Y1224] gave a phosphorylation enrichment of 1.71.

Tested on: c-Abl (mouse)
Assay: as above

Going from VEDHYYEGGIG [TKT_Y564] to SNNYIYKTLGV [FAM83B_Y639], the phosphorylation enrichment falls from 0.837 to 0.494.

First: KGPNVYKKTVN [REV3L_Y1156]
Second: AQMAMYFWEMG [TRPM4_Y577]
The phosphorylation enrichment of the first is lower: 0.492 for the first, 1.11 for the second.

Compared with MPAVTYTPAMR [MEGF10_Y895], FRPPFYHRDCM [HGD_Y334_N337D_YF] is higher in phosphorylation enrichment: 0.455 for the first, 0.735 for the second.

Compared with MANFMYKAGPS [MAML2_Y515_YF], EKKKFYDTKIE [CASP5_Y104_YF] is higher in phosphorylation enrichment: 0.534 for the first, 0.653 for the second.

Going from VKMLEYLGKDV [CASP5_Y74] to VDEVLYEDSSA [MTHFS_Y197_T202A], the phosphorylation enrichment rises from 0.57 to 0.923.

First: TVLEPYTDPFF [ZC3H18_Y367_A368T_YF]
Second: RSAGKDDVFLI [MECP2_Y120_Y120D_YF]
The phosphorylation enrichment of the first is lower: 0.685 for the first, 0.872 for the second.

Compared with KRLDGYVLEGR [IGSF9_Y656], AKGMKYLASKK [MET_Y1194] is lower in phosphorylation enrichment: 0.496 for the first, 0.445 for the second.

First: TEALYYTDDPA [ADPRS_Y75_T79P]
Second: SHSMRYFSTAV [HLA-C_Y31_D33S]
The phosphorylation enrichment of the first is higher: 1.09 for the first, 0.578 for the second.

Compared with ASTDYNKRGDF [PDHA1_Y243_Y243N], TLQSMYGCDVG [HLA-B_Y123] is higher in phosphorylation enrichment: 0.469 for the first, 0.639 for the second.

First: SRLSAYPALEG [CD5_Y465_H461R]
Second: FQRLRYIKQLG [SAMHD1_Y146]
The phosphorylation enrichment of the first is lower: 0.471 for the first, 0.617 for the second.

First: GKGGSYSKAES [HLA-E_Y341_W346S]
Second: PRDSGYSYETI [MAP1B_Y1921_S1917R]
The phosphorylation enrichment of the first is lower: 0.462 for the first, 0.542 for the second.

Compared with VLDCHYPEDEV [C1QBP_Y188], YQCKHYACIRQ [TIMP3_Y182_S179C] is lower in phosphorylation enrichment: 0.919 for the first, 0.514 for the second.

Going from PSELYYSKIGP [SMG1_Y2254] to VEKGSYSALRA [ABCC2_Y845_L849R], the phosphorylation enrichment falls from 3.88 to 0.438.

First: VQEDIYDEFVE [ALDH2_Y332]
Second: FDDDDYDTDFV [BLM_Y296]
The phosphorylation enrichment of the first is higher: 0.859 for the first, 0.767 for the second.

Going from KQVEQYMSFHK [HCN1_Y417] to FDDIAYIRKNL [PIK3CA_Y1021_T1025N], the phosphorylation enrichment falls from 0.691 to 0.483.

Going from HGEAVYSRDCV [XPC_Y676_R671H] to GREYIYVDPMQ [PDGFRA_Y574_H570R], the phosphorylation enrichment rises from 0.66 to 5.21.

Work on SNMPTYSGHFT [GRIN2A_Y1224] yielded a phosphorylation enrichment of 0.457.

Target: FGFR3 (UniProt P22607)
Sequence (P22607 whole entry, looked up): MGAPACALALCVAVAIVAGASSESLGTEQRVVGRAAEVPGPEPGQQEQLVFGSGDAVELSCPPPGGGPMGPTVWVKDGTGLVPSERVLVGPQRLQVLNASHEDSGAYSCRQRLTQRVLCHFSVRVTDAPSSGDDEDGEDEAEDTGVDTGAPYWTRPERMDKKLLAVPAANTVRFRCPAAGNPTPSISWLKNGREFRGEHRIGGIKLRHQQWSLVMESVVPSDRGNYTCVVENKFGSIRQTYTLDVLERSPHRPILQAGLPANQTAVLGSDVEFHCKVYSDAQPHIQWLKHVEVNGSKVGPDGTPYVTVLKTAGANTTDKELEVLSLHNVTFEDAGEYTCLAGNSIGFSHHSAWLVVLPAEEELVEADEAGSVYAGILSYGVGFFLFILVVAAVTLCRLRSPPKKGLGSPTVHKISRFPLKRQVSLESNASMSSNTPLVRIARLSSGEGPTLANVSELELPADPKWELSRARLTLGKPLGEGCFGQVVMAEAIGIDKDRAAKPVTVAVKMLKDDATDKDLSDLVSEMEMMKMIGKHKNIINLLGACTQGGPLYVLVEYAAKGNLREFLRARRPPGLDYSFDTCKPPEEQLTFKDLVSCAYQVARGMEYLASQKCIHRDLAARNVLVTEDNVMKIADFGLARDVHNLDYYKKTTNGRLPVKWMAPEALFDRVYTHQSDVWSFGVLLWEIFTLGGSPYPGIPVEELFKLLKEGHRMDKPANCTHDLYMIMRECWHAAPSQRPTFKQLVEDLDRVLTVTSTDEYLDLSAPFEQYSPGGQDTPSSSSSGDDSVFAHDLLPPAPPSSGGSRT
Assay: as above

Compared with VEDHYYEGGIG [TKT_Y564], SNNYIYKTLGV [FAM83B_Y639] is lower in phosphorylation enrichment: 1.73 for the first, 0.546 for the second.

Going from KGPNVYKKTVN [REV3L_Y1156] to AQMAMYFWEMG [TRPM4_Y577], the phosphorylation enrichment rises from 0.391 to 3.09.

First: MPAVTYTPAMR [MEGF10_Y895]
Second: FRPPFYHRDCM [HGD_Y334_N337D_YF]
The phosphorylation enrichment of the first is lower: 0.425 for the first, 0.724 for the second.

Compared with MANFMYKAGPS [MAML2_Y515_YF], EKKKFYDTKIE [CASP5_Y104_YF] is higher in phosphorylation enrichment: 0.44 for the first, 0.567 for the second.

Going from VKMLEYLGKDV [CASP5_Y74] to VDEVLYEDSSA [MTHFS_Y197_T202A], the phosphorylation enrichment rises from 0.453 to 0.609.

First: TVLEPYTDPFF [ZC3H18_Y367_A368T_YF]
Second: RSAGKDDVFLI [MECP2_Y120_Y120D_YF]
The phosphorylation enrichment of the first is higher: 0.909 for the first, 0.894 for the second.

Going from KRLDGYVLEGR [IGSF9_Y656] to AKGMKYLASKK [MET_Y1194], the phosphorylation enrichment falls from 0.44 to 0.311.

Compared with TEALYYTDDPA [ADPRS_Y75_T79P], SHSMRYFSTAV [HLA-C_Y31_D33S] is lower in phosphorylation enrichment: 5.62 for the first, 0.569 for the second.

Going from ASTDYNKRGDF [PDHA1_Y243_Y243N] to TLQSMYGCDVG [HLA-B_Y123], the phosphorylation enrichment rises from 0.402 to 0.667.

First: SRLSAYPALEG [CD5_Y465_H461R]
Second: FQRLRYIKQLG [SAMHD1_Y146]
The phosphorylation enrichment of the first is lower: 0.469 for the first, 0.509 for the second.

First: GKGGSYSKAES [HLA-E_Y341_W346S]
Second: PRDSGYSYETI [MAP1B_Y1921_S1917R]
The phosphorylation enrichment of the first is lower: 0.394 for the first, 0.898 for the second.

First: VLDCHYPEDEV [C1QBP_Y188]
Second: YQCKHYACIRQ [TIMP3_Y182_S179C]
The phosphorylation enrichment of the first is higher: 0.88 for the first, 0.455 for the second.

First: PSELYYSKIGP [SMG1_Y2254]
Second: VEKGSYSALRA [ABCC2_Y845_L849R]
The phosphorylation enrichment of the first is higher: 8.9 for the first, 0.396 for the second.

Going from VQEDIYDEFVE [ALDH2_Y332] to FDDDDYDTDFV [BLM_Y296], the phosphorylation enrichment rises from 0.731 to 0.78.

Going from KQVEQYMSFHK [HCN1_Y417] to FDDIAYIRKNL [PIK3CA_Y1021_T1025N], the phosphorylation enrichment rises from 0.54 to 0.56.

Compared with HGEAVYSRDCV [XPC_Y676_R671H], GREYIYVDPMQ [PDGFRA_Y574_H570R] is higher in phosphorylation enrichment: 0.687 for the first, 8.94 for the second.

Sequence SNMPTYSGHFT [GRIN2A_Y1224] has a phosphorylation enrichment of 0.428.
